According to patent US10568949B2, “Method of eliciting an anti-tumor immune response with controlled delivery of TLR agonists in porous polymerlc devices” (President and Fellows of Harvard College, priority 2008, dated 2020):

Columns and labels:
[1] = test system: IL-12p70, IFN-α, IFN-γ, and TGF-β; assay: In vivo cytokine concentrations at matrix implant site (ELISA); set-up: species or system C57BL/6J mice
Protocol: After centrifugation, the concentrations of IL-12, IFN-α, IFN-γ, and TGF-β in the supernatant were then analyzed with enzyme-linked immunosorbent assay (R&D Systems) according to the manufacturer's instructions.

[2] = test system: T cells; assay: T cell infiltration at PLG vaccine site (flow cytometry); format: in vivo, C57BL/6J mice; details: with tumor lysate and GM-CSF, day 12
Protocol: Blank PLG matrices and matrices containing 3000 ng of GM-CSF alone or in combination with either 1, 10, 50, or 100 μg of CpG-ODN (studies were also performed with tumor lysates copresented with either 3000 ng of GM-CSF or 100 μg of CpG-ODN alone or in combination) were implanted into subcutaneous pockets on the back of 7- to 9-week-old male C57BL/6J mice. For histological examination, scaffolds were excised and fixed in Z-fix solution (Anatech), embedded in paraffin, and stained with hematoxylin and eosin (H&E). To analyze DC recruitment, scaffolds were excised at various time points and digested the ingrown tissue into single-cell suspensions with a collagenase solution (250 U/ml; Worthington) that was agitated at 37° C. for 45 min. The cell suspensions were then poured through a 40-μm cell strainer to isolate cells from scaffold particles, and the cells were pelleted and washed with cold PBS and counted with a Z2 coulter counter (Beckman Coulter). […] To assess T cell infiltration, PE-Cy7-conjugated CD3 stains were performed in conjunction with APC-conjugated CD8a (CD8 T cells), FITC-conjugated CD4 (CD4 T cells), and PE-conjugated FoxP3 (Treg) and analyzed with flow cytometry. Cells were gated according to positive FITC, APC, and PE with isotype controls, and the percentage of cells staining positive for each surface antigen was recorded.

[3] = test system: dendritic cells; assay: Example 7: DC recruitment and activation in matrices with GM-CSF and TLR agonists (FACS, day 7); format: in vivo, C57BL/6J mice
Excerpt: The cell suspensions were then poured through a 40 μm cell strainer to isolate cells from scaffold particles and the cells were pelleted and washed with cold PBS and counted using a Z2 coulter counter (Beckman Coulter). To assess, DC infiltration and activation, subsets of the total cell population isolated from PLG matrices were then stained with primary antibodies (BD Pharmingen, San Diego, Calif.) conjugated to fluorescent markers to allow for analysis by flow cytometry. APC-conjugated CD11c (dendritic cell marker), FITC-conjugated MHCII and PE-conjugated CD86 (B7, costimulatory molecule) stains were conducted for DC recruitment and activation analysis. To further delineate the presence of specific DC subsets, cells were also stained with APC-conjugated CD11c and PE-conjugated PDCA-1 (plasmacytoid DC marker) or APC-conjugated CD11c and PE-conjugated CD8 (CD8 DCs). To assess T-cell infiltration PE-Cy7 conjugated CD3 stains were performed in conjunction with APC-conjugated CD8a (CD8 T cells), and PE-conjugated FoxP3 (Treg) and analyzed with flow cytometry. Cells were gated according to single positive FITC, APC and PE stainings and using isotype controls. The percentage of cells staining positive for each surface antigen was recorded. To examine the ability of PLG matrices to recruit and activate dendritic cells in vivo, matrices delivering GM-CSF in combination with danger signals were implanted subcutaneously into the backs of C57BL/6J mice. The magnitude of DC infiltration and activation into the matrices was determined by FACS analysis of cell populations isolated from the polymeric material after 7 days.

[4] = test system: IL-12p70; assay: Example 7: cytokine concentrations at implant site; format: in vivo, C57BL/6J mice; details: with GM-CSF
Protocol: To determine in vivo IL-12p70 concentration at the matrix implant site, adjacent tissue was excised and digested with tissue protein extraction reagent. After centrifugation, the concentrations of IL-12, in the supernatant were then analyzed with ELISA (R&D systems), according to the manufacturer's instructions.

[5] = test system: B16-F10 cells; assay: Example 7: vaccination of mice lacking CD8(+) DCs; format: in vivo; details: vaccinated Batf3−/− mice
Protocol: C57BL/6 mice and Batf3−/− knockout mice (6-8-week-old female; Jackson Laboratories) were used in the studies described in Example 7.
Since PLG vaccines incorporating TLR agonists were capable of generating CD8(+) DC populations in situ, which correlated to potent anti-tumor CTL responses and survival (FIGS. 17A-D and 19A-F), studies were carried out to examine whether these cells were required to confer anti-tumor immunity in vivo. […] Wild-type and Batf3−/− mice were vaccinated with CpG-ODN loaded PLG vaccines and challenged with B16-F10 cells 14 days later. Vaccination of wildtype mice promoted complete protection against tumor growth and long-term survival (100% survival), as expected, but vaccinated Batf3−/− were not protected and tumor growth rates were similar to untreated, wild-type animals (FIG. 20A).

[6] = test system: B16-F10 melanoma cells; assay: Example 7: therapeutic vaccination of established B16-F10 melanoma
Protocol: To assess PLG vaccine efficacy in the therapeutic setting, C57/BL6J mice were challenged with a subcutaneous injection of 5×10^5 B16-F10 melanoma cells (ATCC, Manassas, N.J.) in the back of the neck. At day 9 after tumor challenge PLG vaccines loaded with 3000 ng GM-CSF in combination with 100 μg of CpG-ODN, MPLA or P(I:C), and tumor lysates were implanted subcutaneously into the lower left flank of C57BL/6J mice. A subset of mice were vaccinated again 10 days after the initial vaccination (Days 19 and 23).
Mice challenged with 5×10^5B16-F10 melanoma cells were subsequently vaccinated at days 9 and 19, after tumors were established.

[7] = test system: JAWSII DCs; assay: In vitro DC migration toward CCL19 (transwell); format: cell-based
Protocol: Migration assays were performed with 6.5 mm transwell dishes (Costar, Cambridge, Mass.) with a pore size of 5 μm. To test whether CpG-ODN stimulation may affect DC chemotaxis towards CCL19 (Peprotech, Rocky Hill, N.J.) in the presence of GM-CSF, 5×10^5 DCs stimulated with either 5 μg/ml of CpG-ODN or PEI-CPG-ODN (Charge Ratio of 7), and 0, 50 and 500 ng/ml GM-CSF were placed in the top wells and 300 ng/ml of CCL19 was placed in the bottom well. After 12 hours the cells that migrated into the bottom wells of the chamber were harvested and counted using a coulter counter. Dispersement of DCs from PEI-CpG-ODN loaded PLG matrices toward CCL19 was assessed by incorporating 5, 50 and 500 μg of condensates into PLG scaffolds (13 mm diameter, 2 mm thick that were quartered) seeded with 1×10^6 DCs and fixed onto transwells using bovine collagen (BD Biosciences, San Jose, Calif.). To test the effects of CpG stimulation in the presence of GM-CSF, 500 ng/ml of GM-CSF was supplemented into the media of the top wells with scaffolds containing 25 μg of PEI-CpG-ODN. At various timepoints, the cells that migrated into the bottom wells of the chamber were harvested and counted using a coulter counter.

[8] = In vivo GM-CSF concentration in tissue around PLG implant; set-up: species or system C57BL/6J mice; details: for GM-CSF concentration in surrounding tissue: peak
[9] = test system: dendritic cells; assay: Example 8: DC recruitment and activation in cytokine loaded PLG matrices (FACS, day 7); format: in vivo, C57BL/6J mice
Protocol: To analyze DC recruitment by FACS analysis, scaffolds were excised and the ingrown tissue was digested into single cell suspensions using a collagenase solution (Worthingtion, 250 U/ml) that was agitated at 37° C. for 45 minutes. The cell suspensions were then poured through a 40 μm cell strainer to isolate cells from scaffold particles and the cells were pelleted and washed with cold PBS and counted using a Z2 coulter counter (Beckman Coulter). To assess, DC infiltration and activation, subsets of the total cell population isolated from PLG matrices were then stained with primary antibodies (BD Pharmingen, San Diego, Calif.) conjugated to fluorescent markers to allow for analysis by flow cytometry. APC-conjugated CD11c (dendritic cell marker), FITC-conjugated MHCII and PE-conjugated CD86 (B7, costimulatory molecule) stains were conducted for DC recruitment and activation analysis. To delineate the presence of the plasmacytoid DC subset, cells were also stained with APC-conjugated CD11c and PE-conjugated PDCA-1 (plasmacytoid DC marker). Cells were gated according to single positive FITC, APC and PE stainings using isotype controls. The percentage of cells staining positive for each surface antigen was recorded.

[10] = test system: TRP-2-specific cytotoxic T lymphocytes; assay: Example 8: TRP-2-specific cytotoxic T lymphocytes in spleens (Day 10); set-up: species or system C57BL/6J mice; details: mouse, in vivo
Protocol: To determine the generation of TRP-2-specific cytotoxic T lymphocytes, single cell suspensions were prepared at Day 10 from the spleens of mice immunized with PLG vaccines. These cells were initially stained with PE-H-2Kb/TRP2 pentamers (Sigma Aldrich), and subsequently stained with FITC-anti-CD8 and PE-CY7 CD3 mAb (mAb (BD Pharmingen, San Diego) before being analyzed using flow cytometry.

[11] = test system: B16-F10 melanoma cells; assay: Example 8: therapeutic vaccination, B16-F10 melanoma; format: in vivo, C57BL/6J mice; details: vaccinated three days after tumor challenge
Protocol: PLG scaffolds containing B16-F10 melanoma tumor lysates, 100 μg CpG-ODN in combination with 3 μg GM-CSF, Flt3L or CCL20 were implanted subcutaneously into the lower left flank of C57BL/6J mice to act as cancer vaccines. To assess PLG vaccine efficacy in the therapeutic setting, C57/BL6J mice were challenged with a subcutaneous injection of 5×10^5 B16-F10 melanoma cells (ATCC, Manassas, N.J.) in the back of the neck, and 3 days after tumor challenge PLG vaccines were implanted subcutaneously into the lower left flank. Animals were monitored for the onset of tumor growth (approximately 1 mm^3) and sacrificed for humane reasons when tumors grew to 20-25 mm (longest diameter).

CpG-ODN 1826
local production of IFN-α ([1]; high doses of CpG-ODN): ~1010 pg/mL | local production of IL-12 ([1]; high doses of CpG-ODN): 150 pg/mL | ratio of CD8 CTLs to FoxP3 Treg cells at vaccine site (factor) [2]: ~25 | CD8(+) DCs at implant site, higher than controls ([3]; with GM-CSF): 9 fold | CD11c(+) cells positive for MHCII(+) and CD86(+), of total cells recruited ([3]; with GM-CSF): approximately 30% | enhancement of total number of recruited DCs compared to GM-CSF delivery alone ([3]; with GM-CSF): 2.5 fold | increase in total number of activated DCs relative to control matrices ([3]; with GM-CSF): ~23 fold | effect on IFN-α concentration at vaccine site [4]: elevated levels | decrease in TRP2 specific cytotoxic T cells at vaccine site vs wild-type [5]: 3 fold | protection against tumor growth [5]: not protected | complete tumor regression, fraction of vaccinated animals ([6]; mouse, in vivo): over a third | size of tumors that completely regressed / were eradicated ([6]; mouse, in vivo): 35 mm^2 | long term survival of mice ([6]; vaccinated at days 9 and 19): 33%

B1: granulocyte macrophage colony stimulating factor (protein, UniProt P01587 18-141, looked up)
Granulocyte-macrophage …: APTRSPITVTRPWKHVEAIKEALNLLDDMPVTLNEEVEVVSNEFSFKKLTCVQTRLKIFEQGLRGNFTKLKGALNMTASYYQTYCPPTPETDCETQVTTYADFIDSLKTFLTDIPFECKKPGQK
notes: cytokine encapsulated in and released from PLG matrices to recruit DCs
concentration that inhibited DC migration toward CCL19 [7]: > 100 ng/mL | day of secondary peak for GM-CSF in vivo ([8]; 3000 ng dose): 5 days | day of secondary peak for GM-CSF in vivo ([8]; 7000 ng dose): 7 days | GM-CSF concentration difference over no incorporated GM-CSF ([8]; 12 hours post-implantation): > 30 fold | period elevated GM-CSF levels were maintained ([8]; mouse, in vivo): approximately 10 days | GM-CSF concentration in surrounding tissue ([8]; 12 hours post-implantation, 1-3 mm from implant site): 100 µg/mL | GM-CSF concentration in surrounding tissue ([8]; 12 hours post-implantation, 3-5 mm from implant site): 30 µg/mL | factor of increase in TGFβ concentrations at vaccine site ([1]; GM-CSF and tumor lysate in matrix): 10 | ratio of CD8 CTLs to FoxP3 Treg cells at vaccine site (factor) [2]: almost even ratio | CD11c(+) cells in matrices ([3]; GM-CSF alone): 241000 cells | CD86 expression ([3]; GM-CSF alone): 4.58 % of CD11c(+) cells | MHCII expression ([3]; GM-CSF alone): 2.57 % of total CD11c(+) cells | DC recruitment relative to blank PLG matrices ([9]; day 7): > 5 fold | MHCII(+) and CD86(+) DCs of total DCs recruited ([9]; in combination with CpG-ODN): 54-66% | increase in total number of activated DCs relative to control matrices devoid of cytokines ([9]; in combination with CpG-ODN): Approximately 8 fold | resident CD11c(+)PDCA-1(+) pDCs ([9]; in combination with CpG-ODN): approximately 110,000 | Trp2 specific CTLs in spleens, higher than control vaccines [10]: ~4 fold | long-term survival rate [11]: 88%
